The data set is described as follows: soluble on expression in E. coli; label from the status in PepcDB or PDB records.
Take “MAHHHHHHMSGITVQLVFAFVGTRVPYFMPESATAASSPARSPFGNASSVSFNAAAQPTLRADSARTSPRLTPCIPTNLFTAHGLLSHLAKALEPSLHAAANPEAATAESASLSPTAPLPFHKPPVFELFDYASLDPLEGSAALRDEQVLLVLCDIATTAQLVEALQLEWLEVYSGVHHPHHRSCSASTPEPAHTTDMAVCTTEEKLRNVAHAQQALCKPVGLHLSLLRKELLSREATLAAQKEQLAQMRSCTTEGTAPAAPATASGSDGLSTPMLSGRAASFPLLVELEPSLSSEPAPSATDATHLQKLEAPLALCEARVRAVESLMQRAAKHHTKLLGLAASERATEEAFQRGNVSRACAEYLEHTEQDRSAAEAIIADYQVEMTRQVKVVRQLIAYITQVRKLASKAKYEMGVVELILSRLSLTSLRPRLMKEAEALLRRRVILRRAARRQMLLLQETEFVKLQQDLESFSQRMEVQKVLPEKVRWYLRAPLPSLMPEEDPVATLLDHALIDREEDEAQELVEKTRVYTADSSDPEKNALQITEALLPVERLARRLEEARASAAQYKSRVEELEERLKLYETAEALSPPPLQDSAVKSPSTERPAEGGGSFEEG”: the “soluble on expression in E. coli” value is “soluble”.
The value for “MSQLEIRDLWASIDGETILKGVNLVVPKGEVHALMGPNGAGKSTLGKILAGDPEYTVERGEILLDGENILELSPDERARKGLFLAFQYPVEVPGVTIANFLRLALQAKLGREVGVAEFWTKVKKALELLDWDESYLSRYLNEGFSGGEKKRNEILQLLVLEPTYAVLDETDSGLDIDALKVVARGVNAMRGPNFGALVITHYQRILNYIQPDKVHVMMDGRVVATGGPELALELEAKGYEWLKEKVKEGA” was “soluble”; that for “VPGVWSPPCPTTPRVGVVAALVAATLTGCGSGDSTVAKTPEATPSLSTAHPAPPSSEPSPPSATAAPPSNHSAAPVDPCAVNLASPTIAKVVSELPRDPRSEQPWNPEPLAGNYNECAQLSAVVIKANTNAGNPTTRAVMFHLGKYIPQGVPDTYGFTGIDTSQCTGDTVALTYASGIGLNNVVKFRWNGGGVELIGNTTGG” was “soluble”.
For the sequence “MSLGVQPPNFSWVLPGRLAGLALPRLPAHYQFLLDLGVRHLVSLTERGPPHSDSCPGLTLHRLRIPDFCPPAPDQIDRFVQIVDEANARGEAVGVHCALGFGRTGTMLACYLVKERGLAAGDAIAEIRRLRPGSIETYEQEKAVFQFYQRTKEGHHHHHH”, the “soluble on expression in E. coli” value is listed as “soluble”.
The value for “GQDSEVLLDGVAKLSSHNNVIEDAIEGVDLTLKGKSEPNKPPAEIGVEYDRQSVRSDIENFVSAYNSFYQTSQALSSVDPTTGQKGPLAGDSTVRSADSRLKAVFSSRIDQAPENLKSLTEFGITTTRQGTLEINYDMLDRQLNNNFNELEKFFGGNTGFAKRIEDAIHGITGITGSIRTREKSLTEQNYRLNDDQAALDRRMEGLEKRTHAKFTAMQDATGKMQGQLGALMSALG” was “not soluble”; that for “MGHHHHHHSHMANVLCNRARLVSYLPGFCSLVKRVVNPKAFSTAGSSGSDESHVAAAPPDICSRTVWPDETMGPFGPQDQRFQLPGNIGFDCHLNGTASQKKSLVHKTLPDVLAEPLSSERHEFVMAQYVNEFQGNDAPVEQEINSAETYFESARVECAIQTCPELLRKDFESLFPEVANGKLMILTVTQKTKNDMTVWSEEVEIEREVLLEKFINGAKEICYALRAEGYWADFIDPSSGLAFFGPYTNNTLFETDERYRHLGFSVDDLGCCKVIRHSLWGTHVVVGSIFTNATPDSHIMKKLSGN” was “not soluble”; that for “MTQKNESQRQDRVAAWSRHAESELSAYQSAAKLDLQAQKPRDHKLCASLEEAIRRSGLRDGMTVSFHHAFRGGDLTINLVMETIAKMGFKNLTLASSSLSDCHAPLVEHIRNGVVSRIYTSGLRGPLAEEISRGLLAEPVQIHSHGGRVHLVQSGELNIDVAFLGVPSCDEFGNANGYTGKACCGSLGYAMVDADSAKQVVMLTEQLLPYPHNPASIAQDQVDLIVQIEEVGDANKIGAGATRMTTNPRELLIARSAAEVIAHSGYFNEGFSLQTGTGGASLAVTRFLEDKMRSRNIVANFALGGITATMVDLHEKGLIRKLLDVQSFDRNAAQSLARNPNHIEISANQYANWGSKGASVDRLDVVVLSALEVDTHFNVNVLTGSDGVLRGASGGHCDTAVAAALSIIVAPLVRGRIPTLVDNVTTCVTPGSSVDILVTDHGIAVNPARPELAERLKAAGMKVVSIEWLRERAQLLTGQPRPIEFTDRVIAVVRYRDGSVIDVVHQVKE” was “not soluble”.
For “SLTGQLHPAVRVADLLQHINQMKTAEGYGFKQEYESFFEGWDATKKKDKVKGSRQEPMPAYDRHRVKLHPMLGDPNADYINANYIDGYHRSNHFIATQGPKPEMVYDFWRMVWQEHCSSIVMITKLVEVGRVKCSRYWPEDSDTYGDIKIMLVKTETLAEYVVRTFALERRGYSARHEVRQFHFTAWPEHGVPYHATGLLAFIRRVKASTPPDAGPIVIHCSAGTGRTGCYIVLDVMLDMAECEGVVDIYNCVKTLCSRRVNMIQTEEQYIFIHDAILEACLCGETTIPVSEFKATYKEMIRIDPQSNSSQLREEFQTLNSVTPPLDVEECSIALLPRNRDKNRSMDVLPPDRCLPFLISTDGDSNNYINAALTDSYTRSAAFIVTLHPLQSTTPDFWRLVYDYGCTSIVMLNQLNQSNSAWPCLQYWPEPGRQQYGLMEVEFMSGTADEDLVARVFRVQNISRLQEGHLLVRHFQFLRWSAYRDTPDSKKAFLHLLAEVDKWQAESGDGRTIVHCLNGGGRSGTFCACATVLEMIRCHNLVDVFFAAKTLRNYKPNMVETMDQYHFCYDVALEYLEGLESR”, the “soluble on expression in E. coli” value is reported as “not soluble”.
The value for “MNLLLFFLLSTVSVFAVVSGTVEETARDVIDALAHAPFEEWSSVFIETNDRIRAEVIPSTLFIPNSSANGSDDRHKLASYHIVPQRLEFADLLLKPSRSRLPTLLNGSSILVTNNSATSFSIDGVLIIELDIYVDSFIAIHRIAYPLDYTTYGGGSKLISKWPLFTFMLVTVVWFI” was “soluble”; that for “MVLFTGKTVEEAIETGLQELGLSRLKAHIKVISKEKKGFLGFGKKPAQVDIEGISDKTVYKADKKATRGVPEDINRQNTPAVNSADVEPEEIKATQRLEAEDTKVVPLMSEDSPAQTPSNLAETVTETKAQQPSIPVEESEVPQDAGNDGFSKDIEKAAQEVSDYVTKIIYEMDIEATVETSNNRRQINLQIETPEAGRVIGYHGKVLKSLQLLAQNFLHDRYSKNFSVSLNVHDYVEHRTETLIDFTQKVAKRVLESGQDYTMDPMSNSERKIVHKTVSSIEGVDSYSEGNDPNRYVVVSLQR” was “not soluble”.
The value for “MKRVAAVIEYDGSNFFGYQGQPDVRTVQGVIEDALERIFKQRIYTQAAGRTDTGVHANGQLIAFNCPNDRMTTEDIRNAMNANLPDDVYVKEVFEVPVNFHPRFDVTKRIYHYFILTSRQKNVFLRKYVWWFPYELDLDAMRKAVKYLEGTHDFTSFKTGSDERDPVRTIYRIRILRLKNDLVLIRVEGRSFLRRMVRNIVAALVKVGLKQWEPEKMKEVLEARDRSAAAGTAPAHGLYFYKVLF” was “soluble”.
The value for “SFLNGNCLETLKKKEPEGGRRRLSHPGNMGWMRPSQETTPPDRSHHSGFGLFCGDPGPEIEPFSLWVFPQEMVLEIHQLFMDHEYPCHHITSHCTWVAAHWTTSQSCAAWQGCRRACCSTWWKSPAQCTRPTVMSATFETAQEPGPS” was “soluble”.
With “MSVKTWRKIAIDIIRDFDHNIMPLFGNPKASETISISPSGDETKVVDKVAENIIISKFKDLGVNVVSEEIGRIDQGSDYTVVVDPLDGSYNFINGIPFFAVSVAIFHEKDPIYAFIYEPIVERLYEGIPGKGSYLNGEKIKVRELAEKPSISFYTKGKGTKIIDKVKRTRTLGAIALELAYLARGALDAVVDIRNYLRPTDIAAGVVIAREAGAIVKDLDGKDVEITFSATEKVNIIAANNEELLETILRSIEK”, the “soluble on expression in E. coli” value is “soluble”.
Turning to “MSLKIAIVNDMPMAVEALRRALAFDPSHEVVWVATNGAEAVKYCAELTPDLILMDLIMPVMDGVEATRRIMAESPCAIVIVTVDRQQNVHRVFEAMGHGALDVVDTPALGAGNAQEAAAPLLRKILNIGWLIGQRGSRVRSAPQPLRSGAPRQSLVAIGSSAGGPAALEVLLKGLPKDFAAAIVLVQHVDQVFAAGMAEWLSSASGLEVRLAREGEPPQSGKVLLAGTNHHIRLLKNGTLAYTAEPVNEIYRPSIDVFFESVASFWNGDAVGVLLTGMGRDGAQGLKLMRDQGYLTIAQDQNSSAVYGMPKAAAAIGAASEIRPLDKIAPRLLEIFAKEGHHHHHH”, the “soluble on expression in E. coli” value was “soluble”.
As for “MSLTDAPDLILHRGLFTTLDRSNPIASAVAISGGRFSAVGHDREVLPLAGPSTKVIDLKGRRVLPGLIDNHLHIIRGGLNFNMELRWDGVRSLADAMNMLKRQVAITPPPQWVRVVGGFTEHQFAEKRLPTIEELNAVAPDTPVFLLHLYDRAILNGAALRAVGYTRDTPEPPGGEITRDANGNPTGLLLAKPNANILYATLAKGPKLPFDYQVNSTRHFMRELNRLGVTGAIDAGGGFQNYPDDYAVIQKLDEEGLLTIRLAYNLFTQKPKGEKDDFLNWTKTSKYKQGNDYFRHNGAGEMLVFSAADFEDFRVPRPDMPPEMEGELEEVVRILVQNKWPWRLHATYDETISRALDVFEKVNQDTPLDGLHWFFDHAETISDRSIDRIAALGGGIAVQHRMAYQGEYFVERYGFGAAEATPPVRRILDSGVKVSAGTDATRVASYNPWVSLSWLVTGRTVGGLRITPQRNCLDRETALRMWTENVTWFSNEEGNKGRVAVGQLADVVVPDRDYFSCSEAEIADTTSLLTMVGGKVVYGAGEFAGLDDSEGHHHHHH”, the “soluble on expression in E. coli” value was “not soluble”.
The value for “KVWKPGDECFALYWEDNKFYRAEVEALHSSGMTAVVKFTDYGNYEEVLLSNIKPVQTEAWVRDPN” was “soluble”; that for “MSATKSEMPADVASVTDSSAASPAFPLIGDFLEEFLKCQVCCTNYNETTKLARGLHCGHTFCTECIKTMQKYGNSAYLECPSCRAETKCDIAAVSTNFAIMELIRKCGFLGPEKPEEPPMKQAAQPQLEQTIDELIDEGYRLLIADVKADLMAKFEQLRDVSKTSTIEATKADLEVLCDSVKEAVYEADLEYSYDEEESDEDEEENEDEEDVEEEEEKPCAEKKSPAQPERSSSLVRGFQIGLSRLFRNRRIHTEHLQVDHGAIATKLETRAACTEKSDNVKK” was “not soluble”.
On to “MSLTDPVKIYQRKWIVGGWMKRSEIRKALEAWFDVERYEAIETLTLQQFYVEVERRILAYRMLLSRNTIPTFNRLMLDDYRNKILSGEIFFSGDTATIGHELARTYAVNPTTRSHAQFYAKTLSLTEATPELSGLSQSEFLSEYLKETSLNNLSRITVDIHLEEASTEEIIEHLKVLIPQWKRQLKMTSPAPREYRFGKSTFRKIIDYRLIPMMDLIFWGEDNGIKIPLSLISSLLHEDSDNDRDEGMLKATDYPLAMAFLTDASYLKSLEDYMMENNHLKDSPVEKHVEDDRNEGHHHHHH”, for which the “soluble on expression in E. coli” value was “not soluble”.
On to “MSSSAAKYDVFQAIADPTRREVIRLLSDKELPISKITDHFPMSRTAVVKHLHILSEANLVSGRKSGREKIYRLHPEPLEELQQWLSYYERFWDNKLSMLKHIVENEE”, for which the “soluble on expression in E. coli” value is recorded as “not soluble”.
For “MPQLSRYSDEHVEQLLSELLSVLEKHKAPTDLSLMVLGNMVTNLINTSVAPAQRQAIANSFARALQSSISEDNAH”, the “soluble on expression in E. coli” value is “not soluble”.
With “NIQGRTARQTDYLFQIKKHDITFGIGPAGTGKTYLAVACAVDALERELVSRVILVRPAVEAGERLGFLPGDMVQKVDPYLRPLYDALYDLMGFEKVSKHFERGIIEIAPLAFMRGRTLNQSFIILDEAQNTTAEQMKMFLTRIGFGSKAVITGDITQIDLPKHQKSGLVEAERVLKNVNGIAFTRFRTEDVVRHPLVQRIVDAYEKYAPDK”, the “soluble on expression in E. coli” value is “not soluble”.

The record behind these values is the DeepSol protein solubility set.
